Measurements reported in paper PMC2173958.

How the values were obtained:
[1] = target: GST fusion 4b of Sfi1p (676–710) (S. cerevisiae) (UniProt Q12369); assay: pull-down
[2] = target: GST fusion 2b of Sfi1p (246–281) (S. cerevisiae) (UniProt Q12369); assay: pull-down
[3] = target: GST fusion 2c of Sfi1p (279–386) (S. cerevisiae) (UniProt Q12369); assay: pull-down
[4] = target: GST fusion 3a of Sfi1p (451–474) (S. cerevisiae) (UniProt Q12369); assay: pull-down
[5] = target: GST fusion 4a of Sfi1p (643–677) (S. cerevisiae) (UniProt Q12369); assay: pull-down
[6] = target: Sfi1p-prA (S. cerevisiae) (UniProt Q12369); assay: affinity purification with mass spectrometry

Chain of UniProt Q12369 (Q12369 whole entry, the tested form may be a part): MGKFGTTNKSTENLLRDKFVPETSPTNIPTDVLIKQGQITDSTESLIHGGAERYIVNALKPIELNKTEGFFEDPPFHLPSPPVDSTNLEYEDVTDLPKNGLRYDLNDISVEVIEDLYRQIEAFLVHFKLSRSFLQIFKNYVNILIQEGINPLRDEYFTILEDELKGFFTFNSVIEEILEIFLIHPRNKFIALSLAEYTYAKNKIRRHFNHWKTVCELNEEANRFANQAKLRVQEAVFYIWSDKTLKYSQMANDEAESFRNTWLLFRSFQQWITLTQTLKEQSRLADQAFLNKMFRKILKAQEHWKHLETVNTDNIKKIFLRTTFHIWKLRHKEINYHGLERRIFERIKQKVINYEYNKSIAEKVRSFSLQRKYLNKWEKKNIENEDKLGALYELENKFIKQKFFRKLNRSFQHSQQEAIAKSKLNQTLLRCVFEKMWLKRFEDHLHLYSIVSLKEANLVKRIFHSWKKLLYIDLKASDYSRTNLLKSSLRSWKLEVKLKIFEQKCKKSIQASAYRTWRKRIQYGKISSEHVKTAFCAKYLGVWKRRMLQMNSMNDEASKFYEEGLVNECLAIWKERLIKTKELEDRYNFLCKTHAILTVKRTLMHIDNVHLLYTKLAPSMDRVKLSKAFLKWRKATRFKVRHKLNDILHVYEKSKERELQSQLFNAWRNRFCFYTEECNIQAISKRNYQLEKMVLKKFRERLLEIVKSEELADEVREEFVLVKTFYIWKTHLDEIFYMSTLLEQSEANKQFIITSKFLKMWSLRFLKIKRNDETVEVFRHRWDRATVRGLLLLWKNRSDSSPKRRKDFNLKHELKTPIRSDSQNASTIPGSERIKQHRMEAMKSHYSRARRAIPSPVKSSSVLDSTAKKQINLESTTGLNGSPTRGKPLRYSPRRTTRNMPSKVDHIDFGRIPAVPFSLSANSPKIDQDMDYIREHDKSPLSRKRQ

molar ratio of Cdc31p to Sfi1p-prA (inspection of Coomassie-stained bands) [6]	Molecule	stoichiometry N [1]	stoichiometry N [2]	molar ratio of Cdc31p to fusion (gel scan, not at saturation) [3]	stoichiometry N [4]	stoichiometry N [5]
–	recombinant Cdc31p (from UniProt P06704 2-161) (natural protein)	< 1.1	< 1.1	1.1	< 1.1	< 1.1
> 1	Cdc31p (natural protein) MSKNRSSLQSGPLNSELLEEQKQEIYEAFSLFDMNNDGFLDYHELKVAMKALGFELPKREILDLIDEYDSEGRHLMKYDDFYIVMGEKILKRDPLDEIKRAFQLFDDDHTGKISIKNLRRVAKELGETLTDEELRAMIEEFDLDGDGEINENEFIAICTDS	–	–	–	–	–
